For data set [1], the target named is T1, fusion peptide 6-Zif12 (synthetic 15-mer + Zif268, UniProt P08046 P08046:335-391). In words: EMSA; similar results to peptides 1, 3, 5. Conditions: tags: N-terminal Met-Ala, leader peptide; chain copies: 2 stated; label: 32P end-label (Klenow). How it is done: (§1) Figure 4B: FIG. 4(A) Sequences of peptide extensions (SEQ ID NOS: 24-29) isolated from the initial selection. Numbers in parentheses give the frequency of occurrences among the 45 clones sequenced. The clones for peptide 2 included a Glu-21-to-Asp mutation in the zinc finger region that may have been partially responsible for the affinity of this peptide. (B) Gel mobility-shift assays using purified fusion peptides 1, 3, and 5. Protein (2.5 µM, 250 nM, 25 nM, 250 pM, and no protein) was incubated with DNA containing either an inverted repeat of Zif12 sites or a single Zif12 site and then electrophoresed through native polyacrylamide gels. The reduced mobility of the inverted repeat probe in the presence of protein indicates the formation of protein-DNA complexes. Similar results were obtained with fusion peptides 2 and 6. Binding of peptide 4 depend on disulfide bond formation.
(§2) To assess their DNA-binding activity, peptides obtained in these initial selections were expressed in *Escherichia coli* (as fusions with Zif12), purified, and tested in gel mobility-shift assays (FIG. 4B). These fusion peptides bound specifically to duplex DNA containing an inverted repeat of the Zif12 sites, showing little or no activity with DNA containing a single site. […]
(In general: Mobility shift assays separate free from complexed probe on a gel.)

Data set [2] has as its target Zif12 (fingers 1-2 of Zif268) (UniProt P08046 P08046:333-390). In words: EMSA; no shift under these conditions. The note with it: tags: Gly-Ser dipeptide left at N terminus after GST removal; chain copies: 2 inferred (essentially noncooperative, one per half-site); label: 32P end-label (Klenow). How it is done: as §1, §2
The target in data set [3] is T2, fusion peptide 5-Zif12 (synthetic 15-mer + Zif268, UniProt P08046 P08046:335-391). The experiment in a line: EMSA; up to 2.5 uM protein. Conditions: tags: N-terminal Met-Ala, leader peptide; chain copies: 2 stated; label: 32P end-label (Klenow). How it is done: as §1
(§3) To assess their DNA-binding activity, peptides obtained in these initial selections were expressed in *Escherichia coli* (as fusions with Zif12), purified, and tested in gel mobility-shift assays (FIG. 4B). These fusion peptides bound specifically to duplex DNA containing an inverted repeat of the Zif12 sites, showing little or no activity with DNA containing a single site. The complexes with the inverted-repeat site all migrated similarly in the gel, with a mobility for the complexes that was consistent with the formation of dimers.

Data set [4] concerns the target T3, fusion peptide 1-Zif12 (synthetic 15-mer + Zif268, UniProt P08046 P08046:335-391). In words: EMSA; up to 2.5 uM protein. The note with it: tags: N-terminal Met-Ala, leader peptide; chain copies: 2 stated; label: 32P end-label (Klenow). How it is done: as §1, §3
The target in data set [5] is T4, fusion peptide 3-Zif12 (synthetic 15-mer + Zif268, UniProt P08046 P08046:335-391). In words: EMSA; up to 2.5 uM protein. The note with it: tags: N-terminal Met-Ala, leader peptide; chain copies: 2 stated; label: 32P end-label (Klenow). How it is done: as §1, §3
The target in data set [6] is T2, fusion peptide 5-Zif12. In words: EMSA; little or no activity with single site. Conditions: tags: N-terminal Met-Ala, leader peptide; chain copies: 2 stated; label: 32P end-label (Klenow). How it is done:
as §1, §3

For data set [7], the target named is T3, fusion peptide 1-Zif12. The experiment in a line: EMSA; little or no activity with single site. Conditions: tags: N-terminal Met-Ala, leader peptide; chain copies: 2 stated; label: 32P end-label (Klenow). How it is done:
as §1, §3

Data set [8] has as its target T4, fusion peptide 3-Zif12. The experiment in a line: EMSA; little or no activity with single site. Conditions: tags: N-terminal Met-Ala, leader peptide; chain copies: 2 stated; label: 32P end-label (Klenow). How it is done:
as §1, §3

For data set [9], the target named is T1, fusion peptide 6-Zif12. In words: EMSA; little or no activity with single site. Conditions: tags: N-terminal Met-Ala, leader peptide; chain copies: 2 stated; label: 32P end-label (Klenow). How it is done:
as §1, §3

Sequence of Zif12 (fingers 1-2 of Zif268) (P08046 333-390, one chain of several): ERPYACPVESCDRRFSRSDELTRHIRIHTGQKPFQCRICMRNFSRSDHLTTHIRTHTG
T3 sequence (P08046 335-391, one chain of several): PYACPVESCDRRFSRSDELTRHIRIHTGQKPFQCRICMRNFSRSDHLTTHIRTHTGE
T2 sequence (P08046 335-391, one chain of several): as above
T1 sequence (P08046 335-391, one chain of several): as above
T4 sequence (P08046 335-391, one chain of several): as above

B1: phage-selection target duplex, inverted repeat (dsDNA)
DNA 1: GGTTGCAGTGGGCGCGCCCACAGTACTTGAACGTAACG
DNA 2: CGTTACGTTCAAGTACTGTGGGCGCGCCCACTGCAACC
Turning to B1, the binding result with fusion peptide 6-Zif12 [1] is recorded as “binds”; in data set [2], “no binding”; with fusion peptide 5-Zif12 [3] it was “binds”; with fusion peptide 1-Zif12 [4] it was “binds”; in the data set with fusion peptide 3-Zif12 [5] it was “binds”.

B2: single Zif12 site mutant duplex (dsDNA)
DNA 1: GGTTGCAGTGGGCGTATGCTCAGTACTTGAACGTAACG
DNA 2: CGTTACGTTCAAGTACTGAGCATACGCCCACTGCAACC
modifications: [none]
As to B2, the binding result (in data set [2]; in the data set with fusion peptide 5-Zif12 [6]; with fusion peptide 1-Zif12 [7]; in the data set with fusion peptide 3-Zif12 [8]; with fusion peptide 6-Zif12 [9]) was “no binding” in each case.

The record behind these values is patent publication US7943731, “Dimerizing peptides” (Massachusetts Institute of Technology).
